Assay results from paper PMC7910581.

The sequences below were run against T1, Nla28-DBD (Myxococcus xanthus (DK1622?)) (UniProt Q1DD46) (assay: EMSA). Details: EMSA: 25 mM Tris acetate, 8.0 mM magnesium acetate, 10 mM KCl, 1 mM DTT, pH 8.0, 30 min at 30 C; 2 uM Nla28-DBD, 1 ng Cy5-DNA.
T1 sequence: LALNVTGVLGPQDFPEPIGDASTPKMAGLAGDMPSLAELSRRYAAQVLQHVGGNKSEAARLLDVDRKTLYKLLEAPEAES

binding, binds:
CAGCAGGCGCTCGAGGTCCTCAAGGTCAAGAAGTTCGAAAGCGGCATGGTGGTGGACCCCGTCACCATCGAACCGGAGGCCCCGCTGGGCCGCGCGCTGGAGCTGATGCGCCTTCACGGCGTGTCCGGCATCCCGGTGGTGAAGGGCCAGCGACTGGTGGGCATCGTCACCAGCCGCGACGTGCGCTTCGAGACCAACTT (double strand) [Cy5-P3778]
GCTCGTGTCGCGTCCCTACATCCAGAACGCCGCTCGCAAGGCATTGGTCTCCGCCGTGAAGAGCATTGAGGATGCTCAGCAGGAGCTGGAGAGGACGCAGAAGCAGGAGGTGGAGTCGGCAGGCGCGGTCTCGCAGGCAGGGGGCGCGAAGTCCTCCGGCTAGTCAGGACTGTGCGAGGTCGTGTGGACGCTGTCCCTGT (double strand) [Cy5-P1286]
GCGTCTTCTTGTCCGTACCGCGGAAGCGCAGCAGGTAGGGGTTGGCGTAGAAGATGTTGCCGGGCTCGCGCTTGCCCACCCAGAACGTCTCGGGGGCAATCTCCACCGGCACGAGGCGGAGGTCGGAGCTCTGGCTCGGGCTTGGGACTGGGGCGATGGTGCTGCTCATGGGCGCGGCGTTCCTTCCCTTTCGGGTGTAT (double strand) [Cy5-P1579]
